For three molecules, binding result and Kd results are on record in article PMC9149338 (Cellular and Molecular Immunology, 2022).

The test addresses GST-importin α5 (aa 400–538) (human, UniProt P52294 400-538). The experiment in a line: SPR.

Sequence of GST-importin α5 (aa 400–538) (P52294 400-538): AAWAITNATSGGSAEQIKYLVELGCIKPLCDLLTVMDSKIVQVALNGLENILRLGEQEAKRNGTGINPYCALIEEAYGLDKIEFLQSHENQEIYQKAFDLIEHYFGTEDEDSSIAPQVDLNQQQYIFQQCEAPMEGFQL

B1: STAT1 NLS peptide (peptide)
peptide: HLQLKEQKNA
In the case of B1, the binding result is “binds”.

B2: ADAP NLS1 peptide (peptide)
peptide: KEREKKREKEEKKRLELEKKEQKEKEKKEQEIKKK
On to B2, for which the affinity, expressed as Kd, was 2.67 nM.

B3: ADAP NLS2 peptide (peptide)
peptide: KAKTEEKDLKKLKKQEKEEKDFRKKFK
As for B3, the dissociation constant Kd is 2.38 nM.

A word on the Kd: it is a measure of binding affinity in units of concentration. A low value points to higher affinity.
